# Assay results reported in the supplement of paper PMC11875167.
# Experiment: observed amide hydrogen exchange rate constant kobs (stretched exponential fit, FD-normalized) (s^-1); higher = faster H/D exchange (less protection)
# Conditions: pH 3 (pH read); temperature: 20 °C; D2O: 88%
# Procedure, shortened: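 Jurkat tryptic peptides (LysC/trypsin, carbamidomethylated cysteines) were labeled in 88% D2O, pHread 3, 20 °C, quenched with 0.23% formic acid at 13 times from 18 to 93,600 s, in processing triplicates. MS1 uptake (Q-Exactive HF, HDExaminer, no back-exchange correction) was normalized to full-deuteration controls (24 h, 37 °C). Curves were fitted to a stretched single exponential with β = 0.8. The observed exchange rate constant kobs is the fitted rate.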
row,Substance,observed amide hydrogen exchange rate constant kobs
1,SSGPTSLFAVTVAPPGAR,0.000757
2,SSTPEEVK,0.00152
3,STAGDTHLGGEDFDNR,0.00417
4,STGGAPTFNVTVTK,0.000782
5,STTTGHLIYK,0.00173
6,SVETIK,0.000994
7,SVPTSTVFYPSDGVATEK,0.000911
8,SVTEQGAELSNEER,0.00228
9,SVVLMSHLGRPDGVPMPDK,0.00138
10,SYDVPPPPMEPDHPFYSNISK,0.00134
11,SYELPDGQVITIGNER,0.000908
12,TAFDEAIAELDTLNEDSYK,0.00156
13,TAFQEALDAAGDK,0.00172
14,TAMSTPHVAEPAENEQDEQDENGAEASADLR,0.00244
15,TATESFASDPILYRPVAVALDTK,0.000776
16,TDTGEPMGR,0.00239
17,TENLLGSYFPK,0.00102
18,TEWLDGK,0.00181
19,TFFSFPAVVAPFK,0.000546
20,TFNTSTGGLLLPSDTK,0.00131
21,TFVNITPAEVGVLVGK,0.000609
22,TGTAEMSSILEER,0.00127
23,TIAPALVSK,0.000597
24,TIGGGDDSFNTFFSETGAGK,0.00246

row,Substance,observed amide hydrogen exchange rate constant kobs
1,TIIPLISQCTPK,0.000921
2,TITLEVEPSDTIENVK,0.001
3,TLAQLNPESSLFIIASK,0.00061
4,TLFPLIEAK,0.000566
5,TLGILGLGR,0.00116
6,TLHPDLGTDK,0.00356
7,TLLGDGPVVTDPK,0.000938
8,TLNDELEIIEGMK,0.000994
9,TLSDYNIQK,0.00134
10,TLTIVDTGIGMTK,0.000986
11,TLVDIAK,0.000674
12,TLVLLMGK,0.000552
13,TSFFQALGITTK,0.00062
14,TSRPENAIIYNNNEDFQVGQAK,0.00112
15,TVALWDLR,0.000702
16,TVHAGEVGSAEVVK,0.00152
17,TVTNAVVTVPAYFNDSQR,0.000806
18,TYSYLTPDLWK,0.000805
19,VAASNIVQMK,0.000933
20,VAGQDGSVVQFK,0.00116
21,VALVYGQMNEPPGAR,0.00112
22,VAPEEHPVLLTEAPLNPK,0.00104
23,VAQLEQVYIR,0.001
24,VAVATPAK,0.000839

row,Substance,observed amide hydrogen exchange rate constant kobs
1,VAVLGASGGIGQPLSLLLK,0.000683
2,VDFNVPMK,0.000994
3,VDNDENEHQLSLR,0.00288
4,VDQIIMAK,0.00126
5,VEGTEPTTAFNLFVGNLNFNK,0.000826
6,VEIIANDQGNR,0.00189
7,VELFFK,0.000868
8,VELLLK,0.000604
9,VESQLIGK,0.00139
10,VETGVLKPGMVVTFAPVNVTTEVK,0.000574
11,VEVQYK,0.00112
12,VFEGNRPTNSIVFTK,0.000712
13,VFIGNLNTLVVK,0.000428
14,VFLAQK,0.00073
15,VFSGLVSTGLK,0.00112
16,VHIEIGPDGR,0.00136
17,VHLVGIDIFTGK,0.00113
18,VIGSGCNLDSAR,0.00116
19,VIHDNFGIVEGLMTTVHAITATQK,0.00116
20,VIPELNGK,0.00159
21,VLATVTKPVGGDK,0.000932
22,VLDFEHFLPMLQTVAK,0.000855
23,VLEQLTGQTPVFSK,0.00081
24,VLITTDLLAR,0.000753

row,Substance,observed amide hydrogen exchange rate constant kobs
1,VLLPEYGGTK,0.00144
2,VLNTNIDGR,0.00162
3,VLQALEGLK,0.00101
4,VLQATVVAVGSGSK,0.000618
5,VLSSIEQK,0.00109
6,VLTVINQTQK,0.00141
7,VMLGETNPADSKPGTIR,0.00166
8,VMVQPINLIFR,0.000387
9,VNFAMNVGK,0.000903
10,VPPPPPIAR,0.000659
11,VPSLVGSFIR,0.000779
12,VRVELSNGEK,0.00127
13,VSFELFADK,0.00165
14,VSHLLGINVTDFTR,0.00119
15,VSHVSTGGGASLELLEGK,0.000818
16,VTIAQGGVLPNIQAVLLPK,0.000495
17,VTLATLK,0.000759
18,VTLDWAK,0.00095
19,VTLTSEEEAR,0.00196
20,VTVITK,0.000489
21,VVDLLAPYAK,0.000767
22,VVLIGGKPDR,0.00162
23,VVSSIEQK,0.00104
24,VVVSGLPPSGSWQDLK,0.000996

row,Substance,observed amide hydrogen exchange rate constant kobs
1,VYALPEDLVEVNPK,0.0011
2,VYVGNLGNNGNK,0.00211
3,WTGMIIGPPR,0.000901
4,YAFVNWINK,0.00131
5,YAISMAR,0.00127
6,YALYDATYETK,0.00134
7,YAVLYQPLFDK,0.000677
8,YHTINGHNAEVR,0.00291
9,YHTSQSGDEMTSLSEYVSR,0.00202
10,YIDQEELNK,0.00207
11,YISPDQLADLYK,0.000916
12,YLAEFATGNDRK,0.0022
13,YLIPNATQPESK,0.000945
14,YLNFFTK,0.00107
15,YLPELMAEK,0.000924
16,YLTVAAVFR,0.000527
17,YNQLLR,0.000842
18,YPALHKPENQDIDWGALEGETR,0.0022
19,YPIEHGIITNWDDMEK,0.00172
20,YPSPFFVFGEK,0.000978
21,YTPSGQAGAAASESLFVSNHAY,0.00149
22,YYVTIIDAPGHR,0.00127
